From paper PMC3961180, “The Kil Peptide of Bacteriophage λ Blocks Escherichia coli Cytokinesis via ZipA-Dependent Inhibition of FtsZ Assembly” (PLoS Genetics, 2014)

Target: the molecule itself
Test: co-sedimentation; FtsZ 5 µM, His6-FLAG-Kil 10 µM, His6-tagged ZipAC domains 5 µM, GTP 1 mM in polymerization buffer; 1 mM CaCl2 for calcium-induced bundling; TLA 100.3 rotor at 70,000 rpm; supernatant and pellet on Coomassie-stained gels

B1: E. coli FtsZ (natural protein, UniProt P0A9A6 1-383, looked up)
chain: MFEPMELTNDAVIKVIGVGGGGGNAVEHMVRERIEGVEFFAVNTDAQALRKTAVGQTIQIGSGITKGLGAGANPEVGRNAADEDRDALRAALEGADMVFIAAGMGGGTGTGAAPVVAEVAKDLGILTVAVVTKPFNFEGKKRMAFAEQGITELSKHVDSLITIPNDKLLKVLGRGISLLDAFGAANDVLKGAVQGIAELITRPGLMNVDFADVRTVMSEMGYAMMGSGVASGEDRAEEAAEMAISSPLLEDIDLSGARGVLVNITAGFDLRLDEFETVGNTIRAFASDNATVVIGTSLDPDMNDELRVTVVATGIGMDKRPEITLVTNKQVQQPVMDRYQQHGMAPLTQEQKPVAKVVNDNAPQTAKEPDYLDIPAFLRKQAD
notes: cell division protein FtsZ, E. coli; expressed from pET11a-ftsZ (from H. Erickson); No tag is named for this construct; also called FtsZWT; source: E. coli BL21(DE3) pET11a-ftsZ (WM971), purified (successive 20% and 30% ammonium sulfate cuts)
binding result: binds
